# Reference: patent US20130316374A1, “BREAST CANCER DIAGNOSTICS” (IMBA - INSTITUT FUR MOLEKULARE BIOTECHNOLOGIE GMBH, priority 2010, published 2013)
# Assays:
# [1] = tested on: NFκB pathway, CyclinD1; assay: NFκB pathway activation and CyclinD1 expression in mammary epithelial cells after MPA; assay type: in vivo, mouse; settings: three day MPA treatment
# Excerpt: a, Activation of the NFκB pathway and CyclinD1 expression by MPA. Nulliparous RANK^Δmam and littermate control females were s.c. implanted with slow-release MPA pellets or treated with sham surgery. a, In situ immunostaining to detect phosphorylated (P) IκBα in mammary epithelial cells of RANK^Δmam and littermate control females after 3d MPA treatment. b, Western blot analysis of CyclinD1 and RANKL in isolated mammary epithelial cells from RANK^Δmam and littermate control females after 3d MPA treatment. Recombinant, murine sRANKL protein is shown for molecular size comparison. β-actin is shown as a loading control.
# RANKL-RANK signaling via IKKα-NFκB-CyclinD1 in mammary epithelial cells is illustrated in FIG. 11a. […] To directly show whether RANK mediates NFκB-CyclinD1 activation downstream of progestins in vivo, mice were challenged with MPA. […] The Id2 pathway is a second genetically confirmed down-stream pathway for RANKL/RANK in mammary epithelial cells^17. To extend these findings to human, human SKBR3 breast tumor cells were assayed. […] To further test the effects of RANKL stimulation the ability of these cells to grow in an anchorage-independent manner was assessed, which correlates well with tumorigenicity in vivo^18.
# [2] = tested on: SKBR3 human breast cancer cells; assay: DNA damage responses (cell cycle arrest, apoptosis) in SKBR3 cells; assay type: cell-based; settings: RANKL 1 μg/ml
# Procedure: a, Western Blot analysis for γH2AX, phosphorylated (P) Chk1, total Chk1, p53 and β-actin in isolated primary mouse mammary gland epithelial cells in response to γ-irradiation (2 Gray) in the presence (1 μg/ml) or absence of RANKL stimulation. b,c, FACS analysis of propidium iodide (PI) stained b, mammary epithelial cells and c, SKBR3 human breast cancer cells after γ-irradiation (2 Gray) in the absence or presence (1 μg/ml) of RANKL. Data are representative of at least 3 experiments. Apoptotic cells with a DNA content <2n appear in the sub-G1 region. Percent of cells in sub-G1 (M1), G1-phase (M2), S/G2/M-phase (M3) as well as polyploid cells with a DNA content >4n are given for the indicated time points.
# a,b, FACS analysis of a, mammary epithelial cells and b, SKBR3 human breast cancer cells incubated with the genotoxic agent doxorubicin (Dox, 1 μM) in the presence (1 μg/ml) or absence of RANKL. Data are representative of at least 3 experiments. Percent of cells in sub-G1 (M1), G1-phase (M2), S/G2/M-phase (M3) as well as polyploid cells with a DNA content >4n are given for 24 and 36 hours after doxorubicin treatment. c, mRNA expression of pro-apoptotic genes Bim, Puma, and Noxa 6 hours after γ-irradiation (2 Gray) in the presence (1 μg/ml) or absence of RANKL stimulation. Data are shown as fold change compared to control (+/−sem). n=3). *P<0.05; **P<0.005 (Student's t-test).
# For measurement of cell cycle arrest and apoptosis primary mouse mammary epithelial cells and SKBR3 human breast cancer cells were seeded at a cell-density of 100000 cells/well in a 6-well plate and allowed to grow for 24 hours. Cells where then treated with doxorubicin (1 μM) or γ-irradiation (2 Gray) in the absence or presence of recombinant RANKL (1 μg/ml). Cell cycle arrest and numbers of dead cells were determined using propidium iodine staining. To determine in vivo mammary gland epithelial cell death, control and RANK^Δmam littermate females were γ-irradiated with a total dose of 5 Gray (Gy). Six hours later, mammary glands were isolated and immunostained for active Caspase 3 (Cell Signaling) indicative of apoptosis.
# [3] = tested on: SKBR3 breast cancer cells; assay: Growth curve of SKBR3 breast cancer cells; assay type: cell-based, human; settings: RANKL (1 μg/ml), 3 days
# Procedure: a, Western blotting for phosphorylated (P) p65 NFκB, total p65 NFκB, phosphorylated (P) IκBα, total IκBα, phosphorylated (P) ERK1/2, total ERK1/2, phosphorylated (P) p38-MAPK, and p38-MAPK in human SKBR3 breast cancer cells in response to RANKL stimulation (1 μg/ml). Data are representative of 3 experiments. b, Growth curve of SKBR3 breast cancer cells cultured in normal growth medium (control, DMEM supplemented with 10% FCS) or in the presence of RANKL (1 μg/ml). Cell numbers were determined by counting live cells (trypan blue-exclusion) over 3 days. c, Onset of palpable mammary tumors in NFATc1^Δmam (n=10) and age matched littermate control (n=16) females treated with MPA pellets and DMBA. Data are shown as percentage of tumor free mice after the last DMBA challenge. No significant difference was found. d, Quantification of NFATc1 mRNA expression in purified mammary epithelial cells (MECs) and MPA-driven mammary tumors from NFATc1^Δmam and littermate control females. mRNA was determined by qRT-PCR. Data are shown as fold change compared to control (+/−sem). n=5 Per group. *P<0.05 (Student's t-test).
Molecule,nuclear phosphorylated IκBα and CyclinD1 protein expression ([1]; RANK^Δmam female),CyclinD1 protein expression in mammary epithelial cells ([1]; control females),nuclear phosphorylated IκBα in mammary epithelial cells ([1]; control females),cell death after DNA damage ([2]; doxorubicin (1 μM)),early cell cycle arrest after DNA damage ([2]; doxorubicin (1 μM)),cell death after DNA damage ([2]; γ-irradiation (2 Gray)),early cell cycle arrest after DNA damage ([2]; γ-irradiation (2 Gray)),proliferation of SKBR3 cells [3]
"CC(=O)O[C@]1(C(C)=O)CC[C@H]2[C@@H]3C[C@H](C)C4=CC(=O)CC[C@]4(C)[C@H]3CC[C@@]21C [MPA, medroxyprogesterone acetate]",severely reduced,induction of CyclinD1 protein expression,nuclear accumulation of phosphorylated IκBα,,,,,
"RANKL: Receptor Activator of NF-κB Ligand; recombinant murine RANKL used for stimulation (protein, UniProt O35235 139-316, looked up) Tumor necrosis factor ligand …: FSGAPAMMEGSWLDVAQRGKPEAQPFAHLTINAASIPSGSHKVTLSSWYHDRGWAKISNMTLSNGKLRVNQDGFYYLYANICFRHHETSGSVPTDYLQLMVYVVKTSIKIPSSHNLMKGGSTKNWSGNSEFHFYSINVGGFFKLRAGEEISIQVSNPSLLDPDQDATYFGAFKVQDID",,,,marked protection from cell death,did not alter,marked protection from cell death,did not alter,induced
